Target: human D1-D2 truncated LAG-3-ECD-human IgG1 fusion protein (human) (UniProt P18627)
Assay: ELISA on coated ΔD1-D2 huFc; EC50 table has no unit, x axis Ab(nM); fit value of a flat curve

Sequence of human D1-D2 truncated LAG-3-ECD-human IgG1 fusion protein (human) (P18627 253-450): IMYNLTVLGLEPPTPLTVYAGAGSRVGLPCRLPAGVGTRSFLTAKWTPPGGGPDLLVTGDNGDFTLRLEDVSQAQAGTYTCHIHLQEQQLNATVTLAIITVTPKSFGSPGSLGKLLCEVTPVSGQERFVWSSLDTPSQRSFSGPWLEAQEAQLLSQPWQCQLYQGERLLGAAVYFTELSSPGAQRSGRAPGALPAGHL

EC50: 2.62 nM
B1: 147H mouse monoclonal antibody (antibody, V domains shown)
VH: QVQLQQSGSELVRPGTSVKISCKASGYTFTNYWLGWIKQRPGHGLEWIGDIYPGGDYINYNEKFKGKATLSADTSSSTAYMQLSSLTSEDSAVYFCARPNLPGDYWGQGTSVTVSS
VL: DIVMTQAAFSNPVTLGTSASISCRSSKSLLHSNGITYLYWYLQKPGQSPQLLIYQVSNLASGVPGRFSGSGSGTDFTLRISRVEAEDVGVYYCAQNLELPWTFGGGTKLEIK
